The text below walks through data of paper PMC4458873.

In the assay the target is Purified recombinant Syrian hamster vimentin (Syrian hamster) (UniProt P02544). Kind of assay: cross-linking; vimentin at 3 μM, preincubated without or with 150 mM NaCl, 20 μM DBB for 1 h at 37 °C; 7.5% SDS-PAGE and WB.

Turning to “Purified recombinant Syrian hamster vimentin (from UniProt P02544 1-465) (natural protein)”, the fold cross-linked dimer, polymerized versus non-polymerized vimentin came to 3.9 fold.
